Source: PMC7807754, “A novel protein encoded by circular SMO RNA is essential for Hedgehog signaling activation and glioblastoma tumorigenicity” (Genome Biology, 2021)

Molecular target: T1, 6xHis-SMO (human, UniProt Q99835 28-787)
T1 construct: smoothened (SMO), human; The plasmid for the 6xHis-tagged protein is not described; source: 293T, transfected, purified (HisPur Ni-NTA Purification Kit)
Test: co-IP; in vitro IP with proteins purified from 293T: GFP or GFP-193a.a. incubated with 6xHis-SMO for 4 h at 4 °C, immunoprecipitation overnight at 4 °C, protein A/G agarose, washed with PBST 5 times, western blotting
Conditions: both partners purified

T1 sequence (Q99835 28-787): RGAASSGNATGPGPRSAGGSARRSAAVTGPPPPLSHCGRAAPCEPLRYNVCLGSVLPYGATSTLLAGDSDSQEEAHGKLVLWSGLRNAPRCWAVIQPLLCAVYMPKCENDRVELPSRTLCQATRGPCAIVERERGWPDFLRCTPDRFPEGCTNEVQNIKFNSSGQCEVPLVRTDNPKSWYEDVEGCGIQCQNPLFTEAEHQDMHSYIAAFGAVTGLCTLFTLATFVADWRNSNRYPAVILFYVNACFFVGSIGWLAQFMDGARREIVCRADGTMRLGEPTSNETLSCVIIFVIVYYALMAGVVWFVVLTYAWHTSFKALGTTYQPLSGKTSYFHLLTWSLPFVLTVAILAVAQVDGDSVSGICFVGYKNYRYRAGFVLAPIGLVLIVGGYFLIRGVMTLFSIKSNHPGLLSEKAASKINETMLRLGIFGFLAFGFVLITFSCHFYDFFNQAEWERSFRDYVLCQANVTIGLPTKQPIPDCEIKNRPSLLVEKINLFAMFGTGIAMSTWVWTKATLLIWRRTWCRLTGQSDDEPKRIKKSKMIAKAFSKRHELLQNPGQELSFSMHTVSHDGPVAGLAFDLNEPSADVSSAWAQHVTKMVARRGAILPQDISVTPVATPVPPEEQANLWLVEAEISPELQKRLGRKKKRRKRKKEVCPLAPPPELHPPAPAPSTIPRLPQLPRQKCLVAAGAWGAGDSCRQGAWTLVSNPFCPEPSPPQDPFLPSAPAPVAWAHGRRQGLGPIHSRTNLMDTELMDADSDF

B1: GFP-SMO-193a.a. (natural protein, human)
chain: MHSYIAAFGAVTGLCTLFTLATFVADWRNSNRYPAVILFYVNACFFVGSIGWLAQFMDGARREIVCRADGTMRLGEPTSNETLSCVIIFVIVYYALMAGVVWFVVLTYAWHTSFKALGTTYQPLSGKTSYFHLLTWSLPFVLTVAILAVAQVDGDSVSGICFVGYKNYRYRAGFVLAPIGLVLIVGGYFLIRE
notes: SMO (smoothened), human, amino acids 230-421; the open reading frame of circ-SMO; extra Glu at the C-terminal, not part of linear SMO; The plasmid for the GFP-tagged protein is not described; source: 293T, transfected, purified (anti-GFP antibody, Catch and Release v2.0 Reversible Immunoprecipitation System)
binding result: binds
